Experiment in all cases: SPR, antibody captured, C2 as analyte;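 note: biacore SPR at 37 °C, anti-C2 mAbs captured via goat anti-human IgG on CM5 chips, double-referenced sensorgrams fit to a 1:1 kinetic or steady-state model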
One assay has as its target T1, human C2 S278A (human, UniProt P06681 21-752).
T1 sequence: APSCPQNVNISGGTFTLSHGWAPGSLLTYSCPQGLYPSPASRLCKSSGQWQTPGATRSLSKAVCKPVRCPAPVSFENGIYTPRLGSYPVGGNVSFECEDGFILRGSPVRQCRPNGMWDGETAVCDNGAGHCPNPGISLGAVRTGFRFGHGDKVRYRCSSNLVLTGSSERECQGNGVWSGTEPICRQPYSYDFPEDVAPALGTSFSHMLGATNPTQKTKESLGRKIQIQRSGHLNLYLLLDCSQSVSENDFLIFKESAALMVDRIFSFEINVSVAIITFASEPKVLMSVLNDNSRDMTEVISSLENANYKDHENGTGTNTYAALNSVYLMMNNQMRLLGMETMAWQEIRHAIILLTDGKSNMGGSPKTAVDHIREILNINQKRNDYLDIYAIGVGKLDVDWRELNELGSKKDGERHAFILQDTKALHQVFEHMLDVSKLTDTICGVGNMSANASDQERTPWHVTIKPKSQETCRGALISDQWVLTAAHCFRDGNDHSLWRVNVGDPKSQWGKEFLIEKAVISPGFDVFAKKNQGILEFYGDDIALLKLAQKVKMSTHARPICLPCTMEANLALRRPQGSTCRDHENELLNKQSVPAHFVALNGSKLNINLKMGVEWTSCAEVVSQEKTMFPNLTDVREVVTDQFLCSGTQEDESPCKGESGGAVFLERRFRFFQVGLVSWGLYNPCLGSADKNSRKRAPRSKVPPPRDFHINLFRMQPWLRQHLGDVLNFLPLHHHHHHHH

Another assay has as its target T2, human C2 G414A (human, UniProt P06681 21-752).
T2 sequence: T1 sequence with A258S, G394A

A further assay addresses T3, human C2 R434A (human, UniProt P06681 21-752).
T3 sequence: T1 sequence with A258S, R414A

The target in another assay is T4, human C2 I438A (human, UniProt P06681 21-752).
T4 sequence: T1 sequence with A258S, I418A

Changes are numbered by the printed parent chain.

B1: RF16-226 (antibody, human IgG4 S228P, lambda)
heavy: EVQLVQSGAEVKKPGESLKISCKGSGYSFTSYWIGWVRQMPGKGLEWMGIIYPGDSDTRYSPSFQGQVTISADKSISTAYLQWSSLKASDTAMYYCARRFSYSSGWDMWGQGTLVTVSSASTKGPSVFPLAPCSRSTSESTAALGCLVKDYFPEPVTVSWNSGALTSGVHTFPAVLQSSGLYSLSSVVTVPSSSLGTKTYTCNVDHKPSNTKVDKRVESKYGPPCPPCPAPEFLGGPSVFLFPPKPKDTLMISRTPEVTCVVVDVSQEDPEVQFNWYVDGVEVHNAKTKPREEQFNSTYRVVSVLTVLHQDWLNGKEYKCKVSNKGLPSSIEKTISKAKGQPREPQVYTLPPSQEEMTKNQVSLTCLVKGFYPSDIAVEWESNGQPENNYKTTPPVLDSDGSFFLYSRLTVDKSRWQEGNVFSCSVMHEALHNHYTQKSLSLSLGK
light: SYELTQPPSVSVSPGQTARITCSGDALTSKYVAWYQQKSGLAPLLVIYEDTRRPSGIPAKFSGSSSGSVATLTISGAHGDDEADYYCYSTDASGHQRVFGGGTKLTVLSQPKAAPSVTLFPPSSEELQANKATLVCLISDFYPGAVTVAWKADGSPVKAGVETTKPSKQSNNKYAASSYLSLTPEQWKSHRSYSCQVTHEGSTVEKTVAPTECS
notes: pH-dependent anti-C2 antibody from a phage display library; also called WT
For the molecule B1, the Kd (usually a measure of binding affinity in units of concentration) with human C2 S278A came to 9.4 nM; with human C2 G414A it was 11.2 nM; with human C2 R434A it was 142 nM; with human C2 I438A it was 8.7 nM.

Source of the values: patent US20220332804A1 (CSL INNOVATION, published 2022).
